Experimental data taken from article doi:10.1101/2020.12.04.411884 (bioRxiv, 2020).

Target: proteasome αΔ12-subunit (Thermoplasma acidophilum 20S proteasome α-subunit, first 12 residues removed) (Thermoplasma acidophilum, UniProt P25156 13-233)
Assay: […]

proteasome αΔ12-subunit (Thermoplasma acidophilum 20S proteasome α-subunit, first 12 residues removed), sequence (P25156 13-233, stated change not applied): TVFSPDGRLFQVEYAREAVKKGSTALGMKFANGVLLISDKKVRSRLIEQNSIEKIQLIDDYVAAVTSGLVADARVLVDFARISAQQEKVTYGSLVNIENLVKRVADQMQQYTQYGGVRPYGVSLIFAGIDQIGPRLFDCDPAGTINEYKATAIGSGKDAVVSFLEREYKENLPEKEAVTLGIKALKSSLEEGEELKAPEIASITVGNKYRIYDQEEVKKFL

B1: proteasome β-subunit (Thermoplasma acidophilum 20S proteasome) (natural protein)
chain: TTTVGITLKDAVIMATERRVTMENFIMHKNGKKLFQIDTYTGMTIAGLVGDAQVLVRYMKAELELYRLQRRVNMPIEAVATLLSNMLNQVKYMPYMVQLLVGGIDTAPHVFSIDAAGGSVEDIYASTGSGSPFVYGVLESQYSEKMTVDEGVDLVIRAISAAKQRDSASGGMIDVAVITRKDGYVQLPTDQIESRIRKLGLIL
B1: binds.
